Six molecules from patent US20200317768A1 (published 2020) can be followed below.

As usually defined, the Kd is the equilibrium constant for the complex coming apart. A high value points to a looser complex.

The target of assay [1] is T1, human FcγRIIIaV extracellular domain, C-terminal His-tag (human, UniProt P08637 17-208).
T1 construct: also called FcgRIIIaV; not shown: His-tag added to the C-terminus
Put plainly: SPR; KD of SG1 divided by KD of variant.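 Further: relative to parent M103205H795-SG1 carrying the SG1 human heavy chain constant region.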 Here is the method: (§1) The kinetic analysis of interactions between these antibodies and FcγR was carried out using BIACORE® T200 or BIACORE® 4000 (GE Healthcare). HBS-EP+ (GE Healthcare) was used as the running buffer, and the measurement temperature was set to 25° C. A chip produced by immobilizing Protein A. Protein A/G or mouse anti-human IgG kappa light chain (BD Biosciences) onto a Series S Sensor Chip CM4 or CM5 (GE Healthcare) by the amine-coupling method was used. […] After the measurement, the antibody captured on the chip was washed off by allowing reaction with 10 mM glycine-HCl, pH1.5 and 25 mM NaOH so that the chip was regenerated and used repeatedly. The sensorgrams obtained as measurement results were analyzed by the 1:1 Langmuir binding model using the BIACORE® Evaluation Software to calculate the binding rate constant ka (L/mol/s) and dissociation rate constant kd (l/s), and the dissociation constant KD (mol/L) was calculated from these values. […] Regarding such interactions, KD values were calculated using the following 1:1 binding model described in BIACORE® T100 Software Handbook BR1006-48 Edition AE.
(§2) Human FcγRIIb-enhanced Fc variants with anti-myostatin variable region were constructed and their affinity for human FcγRs was evaluated. […] In addition, substitutions (Q311R/D413K or […]) were also introduced. The variants were expressed using M103202L1045-SK1 as light chain and their affinity to human FcγRs was analyzed according to the method shown in Example 34.

Assay [2] has as its target T2, human FcγRIIb extracellular domain, C-terminal His-tag (human, UniProt P31994 43-217).
T2 construct: also called FcgRIIb; not shown: His-tag added to the C-terminus
T2 sequence: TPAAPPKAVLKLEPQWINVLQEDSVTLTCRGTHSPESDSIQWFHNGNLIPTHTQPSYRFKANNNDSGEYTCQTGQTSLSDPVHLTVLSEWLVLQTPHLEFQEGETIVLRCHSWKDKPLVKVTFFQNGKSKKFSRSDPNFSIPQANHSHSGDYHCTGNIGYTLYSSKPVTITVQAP
Put plainly: SPR; KD of SG1 divided by KD of variant.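 Further: relative to parent M103205H795-SG1 carrying the SG1 human heavy chain constant region.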 Here is the method:
as §1, §2
(In general: SPR reads the build-up and loss of mass on a sensor chip optically.)

The target of assay [3] is T3, human FcγRIIaR extracellular domain, C-terminal His-tag (human, UniProt P12318 34-217).
T3 construct: also called human FcγRIIa (type R); FcgRIIaR; not shown: His-tag added to the C-terminus
T3 chain: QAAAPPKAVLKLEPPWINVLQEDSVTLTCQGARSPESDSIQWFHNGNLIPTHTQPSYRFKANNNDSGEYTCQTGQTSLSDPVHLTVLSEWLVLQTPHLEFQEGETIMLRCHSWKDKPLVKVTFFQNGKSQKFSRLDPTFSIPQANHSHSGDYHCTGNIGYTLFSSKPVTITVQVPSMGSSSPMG
Kind of assay: SPR; KD of SG1 divided by KD of variant.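 Further: relative to parent M103205H795-SG1 carrying the SG1 human heavy chain constant region.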 Here is the method: as §1, §2

For assay [4], the target named is T4, human FcγRIIaH extracellular domain, C-terminal His-tag (human, UniProt P12318 34-217).
T4 construct: also called human FcγRIIa (type H); FcgRIIaH; not shown: His-tag added to the C-terminus
T4 sequence: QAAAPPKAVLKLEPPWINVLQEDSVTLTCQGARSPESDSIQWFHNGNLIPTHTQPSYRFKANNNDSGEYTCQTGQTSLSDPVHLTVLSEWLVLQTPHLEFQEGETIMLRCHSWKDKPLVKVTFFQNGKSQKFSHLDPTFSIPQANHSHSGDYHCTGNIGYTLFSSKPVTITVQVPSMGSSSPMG
Kind of assay: SPR; KD of SG1 divided by KD of variant.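 Further: relative to parent M103205H795-SG1 carrying the SG1 human heavy chain constant region.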 The method, then: as §1, §2

Assay [5] deals with T1, human FcγRIIIaV extracellular domain, …. Put plainly: SPR (BIACORE), antibody captured, soluble FcgR as analyte, 25C. Here is the method: as §1, §2
The target in assay [6] is T2, human FcγRIIb extracellular domain, …. The assay is described as above. The method, then:
as §1, §2

Assay [7] deals with T3, human FcγRIIaR extracellular domain, …. The description is as above. Here is the method: as §1, §2
The target of assay [8] is T4, human FcγRIIaH extracellular domain, …. The description is as above. The method, then:
as §1, §2

T1 sequence (P08637 17-208 F176V): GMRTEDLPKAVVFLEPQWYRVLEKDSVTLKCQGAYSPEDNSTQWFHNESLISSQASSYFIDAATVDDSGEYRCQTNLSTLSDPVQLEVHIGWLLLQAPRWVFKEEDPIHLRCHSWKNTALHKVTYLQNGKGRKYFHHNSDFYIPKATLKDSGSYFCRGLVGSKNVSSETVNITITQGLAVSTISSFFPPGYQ

B1: MS1032LO19-SG1 (MS103240H795-SG1/M103202L1045-SK1) (antibody, human IgG1, kappa)
heavy: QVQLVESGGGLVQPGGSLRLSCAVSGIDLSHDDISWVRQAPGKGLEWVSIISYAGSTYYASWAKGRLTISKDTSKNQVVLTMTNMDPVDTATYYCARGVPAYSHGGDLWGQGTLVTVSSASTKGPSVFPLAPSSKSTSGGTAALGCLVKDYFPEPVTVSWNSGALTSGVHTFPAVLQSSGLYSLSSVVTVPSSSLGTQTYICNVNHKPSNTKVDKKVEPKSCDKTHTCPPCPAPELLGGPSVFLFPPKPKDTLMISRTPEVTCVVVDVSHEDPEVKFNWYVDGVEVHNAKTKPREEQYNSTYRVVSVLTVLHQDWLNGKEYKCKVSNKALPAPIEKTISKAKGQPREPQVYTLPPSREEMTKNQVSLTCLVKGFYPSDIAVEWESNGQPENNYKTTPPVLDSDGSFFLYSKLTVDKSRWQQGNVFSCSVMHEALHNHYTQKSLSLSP
light: DIVMTQSPATLSLSPGERATLSCTTSQSVYHENWLSWFQQKPGQPPKLLIYWASTLAYGVPSRFSGSGSGTDFTLTISSLQPEDAATYYCAGGYGGGRYAFGQGTKVEIKRTVAAPSVFIFPPSDEQLKSGTASVVCLLNNFYPREAKVQWKVDNALQSGNSQESVTEQDSKDSTYSLSSTLTLSKADYEKHKVYACEVTHQGLSSPVTKSFNRGEC
For the molecule B1, the “KD fold (SG1 = 1)” value in assay [1], in assay [2], in assay [3] and in assay [4] was 1 fold each time. The Kd is 0.81 µM in assay [5], 0.58 µM in assay [6], 1.1 µM in assay [7] and 0.75 µM in assay [8].

B2: MS103240H795-TT09/M103202L1045-SK1 (antibody, human IgG1, kappa)
heavy: QVQLVESGGGLVQPGGSLRLSCAVSGIDLSHDDISWVRQAPGKGLEWVSIISYAGSTYYASWAKGRLTISKDTSKNQVVLTMTNMDPVDTATYYCARGVPAYSHGGDLWGQGTLVTVSSASTKGPSVFPLAPSSKSTSGGTAALGCLVKDYFPEPVTVSWNSGALTSGVHTFPAVLQSSGLYSLSSVVTVPSSSLGTQTYICNVNHKPSNTKVDKKVEPKSCDKTHTCPPCPAPELLGGDSVFLFPPKPKDVLMISRTPEVTCVVIDVSHEDPEVKFNWYVDGVEVHNAKTKPREEQYNSTYRVVSVLPVLHQDWLNGKEYKCKVSNKALPKPIEKTISKAKGQPREPQVYTLPPSREEMTKNQVSLTCLVKGFYPSDIAVEWESNGQPENNYKTTPPVLDSDGSFFLYSKLTVDKSRWQQGNVFSCSVMHEALHNHYTQKSLSLSP
light: DIVMTQSPATLSLSPGERATLSCTTSQSVYHENWLSWFQQKPGQPPKLLIYWASTLAYGVPSRFSGSGSGTDFTLTISSLQPEDAATYYCAGGYGGGRYAFGQGTKVEIKRTVAAPSVFIFPPSDEQLKSGTASVVCLLNNFYPREAKVQWKVDNALQSGNSQESVTEQDSKDSTYSLSSTLTLSKADYEKHKVYACEVTHQGLSSPVTKSFNRGEC
notes: CH = SG1 with P238D/T250V/V264I/T307P/A330K (EU numbering)
For B2, the “KD fold (SG1 = 1)” value in assay [1] is 0.005 fold; in assay [2] it was 20 fold; in assay [3], 0.08 fold; in assay [4], 0.017 fold. In addition, the Kd in assay [5] was found to be 170 µM; in assay [6], 0.29 µM; in assay [7], 14 µM; in assay [8], 44 µM.

B3: MS103240H795-MY214/M103202L1045-SK1 (antibody, human IgG1, kappa)
heavy: QVQLVESGGGLVQPGGSLRLSCAVSGIDLSHDDISWVRQAPGKGLEWVSIISYAGSTYYASWAKGRLTISKDTSKNQVVLTMTNMDPVDTATYYCARGVPAYSHGGDLWGQGTLVTVSSASTKGPSVFPLAPSSKSTSGGTAALGCLVKDYFPEPVTVSWNSGALTSGVHTFPAVLQSSGLYSLSSVVTVPSSSLGTQTYICNVNHKPSNTKVDKKVEPKSCDKTHTCPPCPAPELLGGDSVFLFPPKPKDVLMISRTPEVTCVVVDVSHEDPEVKFNWYVDGVEVHNAKTKPREEQYNSTYRVVSVLPVLHQDWLNGKEYKCKVSNKALPAPIEKTISKAKGQPREPQVYTLPPSREEMTKNQVSLTCLVKGFYPSDIAVEWESNGQPENNYKTTPPVLDSDGSFFLYSKLTVDKSRWQQGNVFSCSVMHEALHNHYTQKSLSLSP
light: DIVMTQSPATLSLSPGERATLSCTTSQSVYHENWLSWFQQKPGQPPKLLIYWASTLAYGVPSRFSGSGSGTDFTLTISSLQPEDAATYYCAGGYGGGRYAFGQGTKVEIKRTVAAPSVFIFPPSDEQLKSGTASVVCLLNNFYPREAKVQWKVDNALQSGNSQESVTEQDSKDSTYSLSSTLTLSKADYEKHKVYACEVTHQGLSSPVTKSFNRGEC
notes: CH = SG1 with P238D/T250V/T307P (EU numbering)
On to B3, for which the “KD fold (SG1 = 1)” value in assay [1] was determined as 0.005 fold; in assay [2], 5.8 fold; in assay [3], 0.05 fold; in assay [4] it was 0.023 fold. The Kd in assay [5] was found to be 150 µM; in assay [6], 1 µM; in assay [7], 21 µM; in assay [8] it was 32 µM.

B4: MS103240H795-MY009/M103202L1045-SK1 (antibody, human IgG1, kappa)
heavy: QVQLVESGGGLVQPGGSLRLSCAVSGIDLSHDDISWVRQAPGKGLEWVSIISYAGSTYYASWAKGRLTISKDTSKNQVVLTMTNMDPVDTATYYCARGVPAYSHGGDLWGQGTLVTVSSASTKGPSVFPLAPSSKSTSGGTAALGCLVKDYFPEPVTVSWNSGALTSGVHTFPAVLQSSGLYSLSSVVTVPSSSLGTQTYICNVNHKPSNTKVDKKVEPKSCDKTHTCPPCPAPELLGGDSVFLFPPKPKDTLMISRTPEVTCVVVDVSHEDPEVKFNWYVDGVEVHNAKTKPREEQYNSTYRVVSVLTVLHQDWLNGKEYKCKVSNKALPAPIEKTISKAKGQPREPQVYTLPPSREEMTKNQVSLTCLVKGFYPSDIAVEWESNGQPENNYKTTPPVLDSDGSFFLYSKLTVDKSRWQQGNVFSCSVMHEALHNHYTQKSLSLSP
light: DIVMTQSPATLSLSPGERATLSCTTSQSVYHENWLSWFQQKPGQPPKLLIYWASTLAYGVPSRFSGSGSGTDFTLTISSLQPEDAATYYCAGGYGGGRYAFGQGTKVEIKRTVAAPSVFIFPPSDEQLKSGTASVVCLLNNFYPREAKVQWKVDNALQSGNSQESVTEQDSKDSTYSLSSTLTLSKADYEKHKVYACEVTHQGLSSPVTKSFNRGEC
notes: CH = SG1 with P238D (EU numbering)
With B4, the “KD fold (SG1 = 1)” value was found to be 0.004 fold in assay [1], 4.5 fold in assay [2], 0.05 fold in assay [3] and 0.01 fold in assay [4]. Also, the Kd in assay [5] came to 220 µM; in assay [6], 1.3 µM; in assay [7] it was 23 µM; in assay [8], 73 µM.

B5: MS103240H795-TT10/M103202L1045-SK1 (antibody, human IgG1, kappa)
heavy: QVQLVESGGGLVQPGGSLRLSCAVSGIDLSHDDISWVRQAPGKGLEWVSIISYAGSTYYASWAKGRLTISKDTSKNQVVLTMTNMDPVDTATYYCARGVPAYSHGGDLWGQGTLVTVSSASTKGPSVFPLAPSSKSTSGGTAALGCLVKDYFPEPVTVSWNSGALTSGVHTFPAVLQSSGLYSLSSVVTVPSSSLGTQTYICNVNHKPSNTKVDKKVEPKSCDKTHTCPPCPAPELLGGDSVFLFPPKPKDVLMISRTPEVTCVVVDVAHEDPEVKFNWYVDGVEVHNAKTKPREEQYNSTYRVVSVLPVLHQDWLNGKEYKCKVSNKALPKPIEKTISKAKGQPREPQVYTLPPSREEMTKNQVSLTCLVKGFYPSDIAVEWESNGQPENNYKTTPPVLDSDGSFFLYSKLTVDKSRWQQGNVFSCSVMHEALHNHYTQKSLSLSP
light: DIVMTQSPATLSLSPGERATLSCTTSQSVYHENWLSWFQQKPGQPPKLLIYWASTLAYGVPSRFSGSGSGTDFTLTISSLQPEDAATYYCAGGYGGGRYAFGQGTKVEIKRTVAAPSVFIFPPSDEQLKSGTASVVCLLNNFYPREAKVQWKVDNALQSGNSQESVTEQDSKDSTYSLSSTLTLSKADYEKHKVYACEVTHQGLSSPVTKSFNRGEC
notes: CH = SG1 with P238D/T250V/S267A/T307P/A330K (EU numbering)
Regarding B5, the “KD fold (SG1 = 1)” value in assay [1] came to 0.001 fold; in assay [2], 9.2 fold; in assay [3] it was 0.13 fold; in assay [4], 0.013 fold. In addition, the Kd in assay [5] came to 790 µM; in assay [6], 0.63 µM; in assay [7], 8.7 µM; in assay [8] it was 56 µM.

B6: MS103240H795-TT08/M103202L1045-SK1 (antibody, human IgG1, kappa)
heavy: QVQLVESGGGLVQPGGSLRLSCAVSGIDLSHDDISWVRQAPGKGLEWVSIISYAGSTYYASWAKGRLTISKDTSKNQVVLTMTNMDPVDTATYYCARGVPAYSHGGDLWGQGTLVTVSSASTKGPSVFPLAPSSKSTSGGTAALGCLVKDYFPEPVTVSWNSGALTSGVHTFPAVLQSSGLYSLSSVVTVPSSSLGTQTYICNVNHKPSNTKVDKKVEPKSCDKTHTCPPCPAPELLGGDSVFLFPPKPKDVLMISRTPEVTCVVVDVSHEDPEVKFNWYVDGVEVHNAKTKPREEQYNSTYRVVSVLPVLHQDWLNGKEYKCKVSNKALPKPIEKTISKAKGQPREPQVYTLPPSREEMTKNQVSLTCLVKGFYPSDIAVEWESNGQPENNYKTTPPVLDSDGSFFLYSKLTVDKSRWQQGNVFSCSVMHEALHNHYTQKSLSLSP
light: DIVMTQSPATLSLSPGERATLSCTTSQSVYHENWLSWFQQKPGQPPKLLIYWASTLAYGVPSRFSGSGSGTDFTLTISSLQPEDAATYYCAGGYGGGRYAFGQGTKVEIKRTVAAPSVFIFPPSDEQLKSGTASVVCLLNNFYPREAKVQWKVDNALQSGNSQESVTEQDSKDSTYSLSSTLTLSKADYEKHKVYACEVTHQGLSSPVTKSFNRGEC
notes: CH = SG1 with P238D/T250V/T307P/A330K (EU numbering)
As for B6, the “KD fold (SG1 = 1)” value is 0.008 fold in assay [1], 8.5 fold in assay [2], 0.07 fold in assay [3] and 0.014 fold in assay [4]. The Kd in assay [5] came out at 96 µM; in assay [6], 0.68 µM; in assay [7], 16 µM; in assay [8], 55 µM.
